Test results as given in paper PMC5803496, “The catalytic inactivation of the N-half of human hexokinase 2 and structural and biochemical characterization of its mitochondrial conformation” (Bioscience Reports, 2018).

Molecular target: the molecule itself
Test: crystal structure; sitting-drop vapor diffusion, 16% PEG 3350, 0.2 M sodium malonate, 0.1 M Bis-Tris propane pH 8.5, 10% ethylene glycol, 1 mM DTT, 18°C; in complex with glucose and G6P; the dimer is in the asymmetric unit

B1: Δ16 variant of the wild-type human hexokinase 2 (enzyme, UniProt P52789 17-917, looked up)
chain: DQVQKVDQYLYHMRLSDETLLEISKRFRKEMEKGLGATTHPTAAVKMLPTFVRSTPDGTEHGEFLALDLGGTNFRVLWVKVTDNGLQKVEMENQIYAIPEDIMRGSGTQLFDHIAECLANFMDKLQIKDKKLPLGFTFSFPCHQTKLDESFLVSWTKGFKSSGVEGRDVVALIRKAIQRRGDFDIDIVAVVNDTVGTMMTCGYDDHNCEIGLIVGTGSNACYMEEMRHIDMVEGDEGRMCINMEWGAFGDDGSLNDIRTEFDQEIDMGSLNPGKQLFEKMISGMYMGELVRLILVKMAKEELLFGGKLSPELLNTGRFETKDISDIEGEKDGIRKAREVLMRLGLDPTQEDCVATHRICQIVSTRSASLCAATLAAVLQRIKENKGEERLRSTIGVDGSVYKKHPHFAKRLHKTVRRLVPGCDVRFLRSEDGSGKGAAMVTAVAYRLADQHRARQKTLEHLQLSHDQLLEVKRRMKVEMERGLSKETHASAPVKMLPTYVCATPDGTEKGDFLALDLGGTNFRVLLVRVRNGKWGGVEMHNKIYAIPQEVMHGTGDELFDHIVQCIADFLEYMGMKGVSLPLGFTFSFPCQQNSLDESILLKWTKGFKASGCEGEDVVTLLKEAIHRREEFDLDVVAVVNDTVGTMMTCGFEDPHCEVGLIVGTGSNACYMEEMRNVELVEGEEGRMCVNMEWGAFGDNGCLDDFRTEFDVAVDELSLNPGKQRFEKMISGMYLGEIVRNILIDFTKRGLLFRGRISERLKTRGIFETKFLSQIESDCLALLQVRAILQHLGLESTCDDSIIVKEVCTVVARRAAQLCGAGMAAVVDRIRENRGLDALKVTVGVDGTLYKLHPHFAKVMHETVKDLAPKCDVSFLQSEDGSGKGAALITAVACRIREAGQR
notes: wild type; Crystallised in complex with glucose and glucose-6-phosphate; also called Δ16-HK2; HK2; source: E. coli, Champion pET SUMO expression system, purified (nickel-chelating resin, Superdex 200)
binding result: binds
